Assay results published in FireProtDB (doi:10.1073/pnas.0910421107).

B1: Ribose import binding protein RbsB, P02925 (parent)
chain: MNMKKLATLVSAVALSATVSANAMAKDTIALVVSTLNNPFFVSLKDGAQKEADKLGYNLVVLDSQNNPAKELANVQDLTVRGTKILLINPTDSDAVGNAVKMANQANIPVITLDRQATKGEVVSHIASDNVLGGKIAGDYIAKKAGEGAKVIELQGIAGTSAARERGEGFQQAVAAHKFNVLASQPADFDRIKGLNVMQNLLTAHPDVQAVFAQNDEMALGALRALQTAGKSDVMVVGFDGTPDGEKAVNDGKLAATIAQLPDQIGAKGVETADKVLKGEKVQAKYPVDLKLVVKQ

Variants of: B1
Settings: Escherichia coli (strain K12), pH 7.6, Thermal, MOPS 25 mM, Potassium chloride 100 mM, structure 2DRI, whole UniProt chain shown
[1] = 25 °C, Quantitative cysteine reactivity
[2] = Quantitative cysteine reactivity

Variant	unfolding enthalpy (van 't Hoff) [1] [kJ/mol]	unfolding free energy [1] [kJ/mol]	Tm (Activity) [°C]	change of melting temperature, mutant - wild type (higher = more stable) (Activity) [°C]	Tm [2] [°C]	change of melting temperature, mutant - wild type (higher = more stable) [2] [°C]	ddG of mutation (higher = less stable) (25 °C, Activity) [kJ/mol]	unfolding enthalpy (van 't Hoff) (25 °C, Activity) [kJ/mol]	unfolding free energy (25 °C, Activity) [kJ/mol]
MNMKKLATLVSAVALSATVSANAMAKDTIALVVSTLNNPFFVSLKDGAQKEADKLGYNLVVLDSQNNPAKELANVQDLTVRGTKILLINPTDSDAVGNAVKMANQANIPVITLDRQATKGEVVSHIASDNVLGGKIAGDYIAKKAGEGAKVIELQGIAGTSAARERGEGFQQAVAAHKFNVLASQPADFDRIKGLNVMQNLLTAHPDVQAVFCQNDEMALGALRALQTAGKSDVMVVGFDGTPDGEKAVNDGKLAATIAQLPDQIGAKGVETADKVLKGEKVQAKYPVDLKLVVKQ [A213C]	381	17.2	56	-6.6	56	-6.6			
MNMKKLATLVSAVALSATVSANAMAKDTIALVVSTLNNPFFVSLKDGAQKEADKLGYNLVVLDSQNNPAKELANVQDLTVRGTKILCINPTDSDAVGNAVKMANQANIPVITLDRQATKGEVVSHIASDNVLGGKIAGDYIAKKAGEGAKVIELQGIAGTSAARERGEGFQQAVAAHKFNVLASQPADFDRIKGLNVMQNLLTAHPDVQAVFAQNDEMALGALRALQTAGKSDVMVVGFDGTPDGEKAVNDGKLAATIAQLPDQIGAKGVETADKVLKGEKVQAKYPVDLKLVVKQ [L87C]	339	13.4	54	-8.6	54	-8.6	11.3	339	13.4
